The DeepSol protein solubility set

Test: soluble on expression in E. coli; label from the status in PepcDB or PDB records

Sequence | soluble on expression in E. coli
MSPIVSVPDITAPVENVPAILPKVVPGELIVNKPTGGDSDELFQYLVDILASPVYDVAIESPLELAEKLSDRLGVNFYIKREDKQRVFSFKLRGAYNMMSNLSREELDKGVITASAGNHAQGVALAGQRLNCVAKIVMPTTTPQIKIDAVRALGGDVVLYGKTFDEAQTHALELSEKDGLKYIPPFDDPGVIKGQGTIGTEINRQLKDIHAVFIPVGGGGLIAGVATFFKQIAPNTKIIGVEPYGAASMTLSLHEGHRVKLSNVDTFADGVAVALVGEYTFAKCQELIDGMVLVANDGISAAIKDVYDEGRNILETSGAVAIAGAAAYCEFYKIKNENIVAIASGANMDFSKLHKVTELAGLGSGK | soluble
MLNIDNIQSLIDNGEGYNVEFKVRVPSKVRELTEEICAFANADGGYLLIGVDDNGQVVDTNLENDKRSAIQGSISEISPTLHCELYSVNLGDKTVWVIDVPSSKDKPYIFSGSIYVREGANSQKLRTAEEIRSFFQECNKIYFDHIPCHWFNIYTDADAQMIKDFRTEAKLSPSTPRQTNILEHHHHHH | soluble
MQNISIAENNRTGIPVQSLSYEQAAKGPTGSIMTEGYAKAIANYAYVWGWPMVNMHNRREAFKQVPYQGYIGGAMPAAPINHLTMLSDYVSPNMRDVAHPNQDVVYGFGMLSLDKEPVVIQVPDFGDRFWTVMAEDQRTDSFAQLSSIYDSKPGFYMIVSPEWDGEIPEGINKVFRSSTDLAVVIPRVFMDDTAEDREAIQSVVNQLGAYPLSEFTGIMKITNWKSLPNIPEAKKTKSEKTWVNPNMFFSAEQLGKVLEEVSPLPGEEAMYAQFKELLLQAEENKELQKILNDVANEAEMNIVTPLFRLENVGKEINNYWTRPQDNGRFGTDYLTRLAVAKSNIFTNDVTETSYLYQYKDENGTRINGNHNYTLTFKKGELPPVDGFWSLTMYNSNHFFVPNDIKRYSIGTKNKGMKYNKDGSLTIYIQNEKPSEDKIGNWLPAPKDDIAMTIRAYGPKEEMLSGTWQPPAVVKIKLEHHHHHH | soluble
MSKKPTSAYVHIPFCTQICYYCDFSKVFIQNQPVDAYLKALIQEFDSYGIRDLKTLYIGGGTPTAITAKQLEYLLNHLERNLNLDDLEEFTIEANPGDLTPEKIAVLQRSAVNRISLGVQTFNNKQLKQIGRSHNEEQIYSTIANLKTAGFHNISIDLIYALPGQTLDQVKENVAKALALDIPHLSLYSLILEHHTVFMNKMRRGKLNLPTEDLEAEMFEYIISEMEANGFEH | not soluble
MFSPLRRLTTTGLQLQKLQKLQKLQQFQPARAVHLTVFQQKGHSKWQNIKAVKGKNDLIRSKATNFLLRKVRGAVSRGGFDMKLNRELADLESEFRAQGLPLDTLKNFLQKMKDKPEVEYSFDIIGPSGIFLIVTAETSNKKAFENDLRKYFNKLGGFRLAADGGVRSWFEEKGVVHVDTKKGGKILNIEEMEEIGLEFDAEEVLLIEEDSTKKFELICDAKSLQTLENGLGKGGFSILQSEIEFRPVHPIDCPEAEEPKVQKLYEMLQEDEQVRQIFDNITPDE | not soluble
MTDFDIDTSAANYADELALLGVTGAMSYAPKGTQMPETIAPLNPPFVDFGWLSDGGITESQNEERNDWTPFQSTNPIRGQVTKQDFQFKTVVWSISGLANAMYYGVPESDMRFDQETGVTTFEQGKELPPDFKFGLVVDIVDGGKARRHCMPNVSVVERGDIVYSKDDLVGYEMTFRASYDPVAGYAVRRMFKEGWKPGHAGTTLADENKDASLGDWSNTLDESEVRKQSKTVTLPKGATGGTFTVSINGKASAAINHDATGTAMKLVLNKVDGGESAKVTGRAGGPYTITGVEGEITADGTNLTGSDTQDISIN | not soluble
GMREDMKDNVVKDKSLEFAVRIVNLYKFLVNEQKEFVMSKQILRSGTSIGANIREAEQAQSRADFINKLNIALKEANETEYWLELLIRTEYITREQYESINNDSTEINKLLISIIKTTKNN | soluble
MNLHEYQAKEILARYGVPVPPGKVAYTPEEAKRIAEEFGKRVVIKAQVHVGGRGKAGGVKLADTPQEAYEKAQAILGMNIKGLTVKKVLVAEAVDIAKEYYAGLILDRAKKRVVLMLSKEGGVDIEEVAAERPEAIHKFWIDPHKGFRPFEAREMVKRAGLEGNLNKLAQVLVALYRAYEGVDASIAEINPLVVTTDGGIVAADAKIVLDDNALFRHPDLAELREVEAEHPLEVEASNYGFAYVKLDGNIGIIGNGAGLVMYTLDLVNRVGGKPANFLDIGGGAKADVVYNALKVVLKDPDVKGVFINIFGGITRADEVAKGVIRALEEGLLTKPVVMRVAGTAEEEAKKLLEGKPVYMYPTSIEAAKVIVAMVGGAA | soluble
MSKLPMLSQNPENIKILHTAADFRYELLKQIENAQQRIYIVALYLENDDAGREIFTALYEAKQKNPTLDINVLVDWHRAQRGLIGAEKSDGNAALYREFSEKYEHSINVLGVPVRNKEVFGVLHLKGFIFDDTVVYSGASLNDVYLAHKDKYRFDRYHVLNNALLANSMVSFIKKTLIASPAVNCLSQQNRPDTKSLKPEIKELRKQLGLANYQFTSQTRKEGEVGITPLVGLGRKGNKLNNYIRTLLASATSEITICTPYFNFPKPIAKELKKALRRGVKVTIIVGDKTANDFYISPEEEFKTIAGLPYLYEINLRNFAKANETYIASRQLSLNLWKHENNSFHLKGMWVDKEYTLITGSNLNPRAWKLDLENGLLLQDPEQLLVDTKQAELDVILEHTQLIGSYKQVDKLDSYPVEVKKLIKRIKRIKADHILNQILLEHHHHHH | soluble
LKDFRYGIRLTGTTIKNEVISLGGKRIASGDIGAGKSVQMTEEGKPIKYFYGYNVIGIFQNEAQIKDYNERAAAATGNAGQQYQNNVGPGDLIYEDVDGDGYITANDRKDLGSPTPKFIGGLGISAFWKGFDLSIDFQGNFGNKIFNAKQVERFSGSDNWDRSFLDRWTPENPNTMTPRMTLEGNNYQVSSRYVESGSYVKLQTVELGYTFPKSWMQKVSVQNLRVYFSGNNLAYFTGYNGFTPEVLGGIDRQIYPVTATCRFGLNVTF | not soluble
MVFFTCNACGESVKKIQVEKHVSNCRNCECLSCIDCGKDFWGDDYKSHVKCISEGQKYGGKGYEAK | soluble
MQKGVYIMNSTSSIITIGREYGSGGRQIGQEVAKYFGIKCYDKELLEHAANDSGICKELFEHHDEKPTNSFLYSLVMDTYSFGYSSSGFSDMPMNHKIFLAQFDAIKKLAGEGPCVMVGRCADYALADWNDCFSIFVHADLDWRINRIASKHGKTPKEAKDMITKTDKSRASYYNYYTNKKWGAARSYNLCIDSGKLGIDYATEAIIESIKIFDRTKISK | not soluble
GMSKPAITLWSDAHFFSPYVLSAWVALQEKGLSFHIKTIDLDSGEHLQPTWQGYGQTRRVPLLQIDDFELSESSAIAEYLEDRFAPPTWERIYPLDLENRARARQIQAWLRSDLMPIREERPTDVVFAGAKKAPLTAEGKASAEKLFAMAEHLLVLGQPNLFGEWCIADTDLALMINRLVLHGDEVPERLVDYATFQWQRASVQRFIALSAKQSG | soluble
MEVLGITEKALNYYRENVKDNKTITPDQALLKMIRNVLLVKETHPERVKKRLFCTEYAYGNMIIKVNRKKQVFEIVNKSGCFSDQNDWKFPKRRYIELSKELGIKDCKFRKITYSKKNHNKQKLEHHHHHH | soluble
MSLAESVFAERIVQNLLDTDFYKLTMMQAVLHNYPNAEVEWEFRCRNAEDLRPYLAEIRYQIERLAEVEVTADQLAFLERIPFMKPDFIRFLSLFRFNLRYVHTGIEDGQLAIRLRGPWLHVILFEVPLLAIVSEVRNRYRYREVVLEQVGEQLYRKLDWLSAQASSEELAEFQVADFGTRRRFSYRTQEEVVHILKRDFPGRFVGTSNVHLAREYDLKPIGTMAHEWLMAHQQLGPRLVDSQQAALDCWVREYRGQLGIALTDCITMDAFLDDFDLYFAKLFDGLRHDSGDPLAWAEKAIAHYRRLGIDPLSKTLVFSDGLDMPKALQLFRALRGKINVSFGIGTNLTCDIPGVEPMNIVLKMTACNGHPVAKISDAPGKTQCRDENFVAYLRHVFNVPAEGHHHHHH | soluble
MNQHLLGNPKLTVTHVNEVKAGINHIVVDSVQYGNQEMIMEKDGTVEMRDGEKLYINIFRPNKDGKFPVVMSADTYGKDNKPKITNMGALWPTLGTIPTSSFTPEESPDPGFWVPNDYVVVKVALRGSDKSKGVLSPWSKREAEDYYEVIEWAANQSWSNGNIGTNGVSYLAVTQWWVASLNPPHLKAMIPWEGLNDMYREVAFHGGIPDTGFYRFWTQGIFARWTDNPNIEDLIQAQQEHPLFDDFWKQRQVPLSQIKTPLLTCASWSTQGLHNRGSFEGFKQAASEEKWLYVHGRKEWESYYARENLERQKSFFDFYLKEENNDWKDTPHVIYEVRDQFYKGEFKSASAFPLPNAEYTPLYLNAENHTLNHAKISSAHVAQYDSEDKQQDVSFKYTFDKDTELVGNMNLKLWVSTKDSDDMDLFAGIKKLDRRGNEVNFPDFNHIENGQVATGWLRVSHRELDQEKSSIAQPWHKHETELKLSQDEIVPVEIELLPSGTLFKQGETLEVVVKGSEIVIGNSTPGMKTRYEHEETVNKGMHMIYTGGKYDSQLIIPIVN | soluble
MTRQMILAVGQQGPIARAETREQVVGRLLDMLTNAASRGVNFIVFPELALTTFFPRWHFTDEAELDSFYETEMPGPVVRPLFETAAELGIGFNLGYAELVVEGGVKRRFNTSILVDKSGKIVGKYRKIHLPGHKEYEAYRPFQHLEKRYFEPGDLGFPVYDVDAAKMGMFICNDRRWPETWRVMGLKGAEIICGGYNTPTHNPPVPQHDHLTSFHHLLSMQAGSYQNGAWSAAAGKVGMEEGCMLLGHSCIVAPTGEIVALTTTLEDEVITAALDLDRCRELREHIFNFKAHRQPQHYGLICEF | soluble
MSLGIRGLDLSDLFVSGASYKRLGSEEMMRSTFQKLDREIAAIFLGLSDGTISKAIEYSKVRTAFDHPLKDYSPIFDDLVSLKMEIDVLRFYLYGSGDEYSRALIKIKAKDLSLRATRVSLQTHGGYGYIHDFGIEKYYRDAMALSVYFGQDKYENMVLSDHIFGEAGGEGHHHHHH | not soluble
MSSRYSERNGLSETEKMTLPKVRKRKAQLVDEIEALKNEVREVDEELDQVYYTHPKSKEYHKIVVNGRKKFNQDPWKALDWLASRNVVAKDPQALALWMKAGEGLSKSAIGEILGDNRPFALETLDRFTKEHKLHDVPIVPALRQYLFSFRLPGESQKINRILEKFAEVYANQNPSYGNADQAHTVAYSCIMVNTLLHNPNVKDKPSLEKYIEMNEQLLEKGAITIEQLTEVYESVSVTQFKIPDEVSTSGKGTVNDILLHAEREGWLFKQSSNPLFSGALSWKKRWFVLSENCLYYFDQMTDKEPKGIITLANVGIRKVEAPSRPFMFEIFSLSDGQIKACKTEQDGRLVEGRHSIYKICAVNDEDMRSWINAISRMMAPQQHLLARPKSTH | soluble
MGHHHHHHSHMAPGGLFLPYHSLPQPDFLASCPTRHLKLCQCPGILAENPHQFSPTFPPGKGSCQHGALPGQVSLKEAAHTEMSLSGQDLFPSPAHPPLQPFWLPFSLCLSTPFLVADNELRLPKGQICPLHVFVLANRVVLKLCANSVWEHSKGIT | not soluble
